Source: the DeepSol protein solubility set

Assay: soluble on expression in E. coli; label from the status in PepcDB or PDB records

Sequence	soluble on expression in E. coli
MGHHHHHHSHMSGVAGGASKKSSSRTMATKKLIIDEFKRRLRDNIKSLNDNFFHIIQAAKVNPDDNAYKNQTGKMTEFYTTKNEMAVRAQLMVRASDELLKLTADLKEFLILHDFHFLTHNIKQAEAQCEETLRQQSHQHNCLDSEVSNILFDLEREIAENFYLRHT	not soluble
MVSRLSTGILDFDKLIQGGIPQGFFIALTGEPGTGKTIFSLHFIAKGLRDGDPCIYVTTEESRDSIIRQAKQFNWDFEEYIEKKLIIIDALMKEKEDQWSLVNLTPEELVNKVIEAKQKLGYGKARLVIDSVSALFLDKPAMARKISYYLKRVLNKWNFTIYATSQYAITTSQAFGFGVEHVADGIIRFRRMIRNGELHRYILIEKMRQTDHDKHVWEIDIVNGKGIVLKGRLEE	soluble
MQEKDCIFCKIVRGEVPAKKVYEDDKVLAFHDINPVAPVHILIIPKKHIMGIQTLEPEDECLVGHMFYVARKIAEDLGIAPDENLNKGYRLVFNVGKDAGQSVFHLHLHLIGGREMSWPPG	soluble
MGSDKIHHHHHHMEMRFFVLGAGSWGTVFAQMLHENGEEVILWARRKEIVDLINVSHTSPYVEESKITVRATNDLEEIKKEDILVIAIPVQYIREHLLRLPVKPSMVLNLSKGIEIKTGKRVSEIVEEILGCPYAVLSGPSHAEEVAKKLPTAVTLAGENSKELQKRISTEYFRVYTCEDVVGVEIAGALKNVIAIAAGILDGFGGWDNAKAALETRGIYEIARFGMFFGADQKTFMGLAGIGDLMVTCNSRYSRNRRFGELIARGFNPLKLLESSNQVVEGAFTVKAVMKIAKENKIDMPISEEVYRVVYEGKPPLQSMRDLMRRSLKDEFWAS	soluble
MSSDRIVITGVAINTPIGDTLDLVGNNLLSGKSAIGYWRNFDTSNIYSKIGGQIPEYDIEGKLHAFSNRIPDIVLSRAEKVFKQTTKGVQLSVLMAMEAWLDAGLFEHIIDPFDCGIICGGHNLSDKYLLDQQKIFSDEPEFIDAFSGLNSLDTDHSSSVAQVLNTKGFAYLVGGTCATGNIAIQTAINAIKVDKKQVVAVVCPMASFHPMMLHSLTILEAICYSQYQDTPTKASRPYDINRSGFLPSEGGAVLIFEQAEHAKNRGAKIYAELLGASVNSDANHLGDPSHEGQVRVIQDVLKKCNISPEQVDYVSAHATSTKLGDIVELKSIKRVFGSHAEKLIINAPKSLLGHTMWASGVVEAAIAIWQMRQGEFHQSHNIETLDPAVELNVCASGNVKKEVNIFLNNSFGMGGINSASLFSRYHG	not soluble
MIRKNKWLRFQTVCRYIPLSLKNHNRLVIFVCQRIEWRYIFSTNTGHPLKNTCEMTGTDFSTDGLMRRYVTGGNNQWHTVASLHMTIMMNRIGTVADRQPKARKVKHGEMTLEHHHHHH	not soluble
LKDVLNILLMDEISKLKDFLSNLDYIKPKVNIEEEIIEIRKEDIINALKLFKGKYEIEVDKIPKAVYVYLVKKNILFLYPQRGTLKPQSFLVWNAIKRVL	soluble
GPLHMVKVALAGCPNVGKTSLFNALTGTKQYVANWPGVTVEKKEGVFTYKGYTINLIDLPGTYSLGYSSIDEKIARDYLLKGDADLVILVADSVNPEQSLYLLLEILEMEKKVILAMTAIDEAKKTGMKIDRYELQKHLGIPVVFTSSVTGEGLEELKEKIVEYAQKNTILHRMILDYGEKVESEIKKVENFLRDKKLRINPRYFALKYLSGDPEFYSEGVKLGLPELSEEERIGYRLLIAKRKREYVENVVKEAFAD	soluble
MSLIEERLKHYLEKQIPARDQYIEQMEREAHEQQVPIMDLLGMESLLHLLKMAAPARILEIGTAIGYSAIRMAQALPEATIVSIERDERRYEEAHKHVKALGLESRIELLFGDALQLGEKLELYPLFDVLFIDAAKGQYRRFFDMYSPMVRPGGLILSDNVLFRGLVAETDIEHKRHKQLATKIDTYNQWLLEHPQYDTRIFPVGDGIAISIKRETKGDTDDEKAEGHHHHHH	soluble
MAHHHHHHMIPKESMNVDQSRYETQEGTIVENKLTPFLELTSGEIPMWVKQKYLLSPIDTSKYSDDFYKLGPDDFGKLSGEQVKPDLIKSKLPSSVLHKIWNLADITKDGYLDLFEYSLARHFIEMKTEGFDLPTKVPKDIINSHEY	soluble
MAKWGEGDPRWIVEERADATNVNNWHWTERDASNWSTEKLKTLFLAVRVENEEGKCEVTEVNKLDGEASINNRKGKLIFFYEWTIKLNWTGTSKSGVQYKGHVEIPNLSDENSVDEVEISVSLAKDEPDTNLVALMKEDGVKLLREAVGIYISTLKTEFTQGMILPTVNGESVDPVGQPALKTETCKAKSAPSKSQAKPVGVKIPTCKITLKETFLTSPEELYRVFTTQELVQAFTHAPAALEADRGGKFHMVDGNVTGEFTDLVPEKHIAMKWRFKSWPEGHFATITLTFIDKNGETELCMEGRGIPAPEEERTRQGWQRYYFEGIKQTFGYGARLF	soluble
MSYRYMRMILMFDMPTDTAEERKAYRKFRKFLLSEGFIMHQFSIYSKLLLNNTANNAMIGRLREHNPNKGNITLLTVTEKQFARMIYLHGERNNCIANSDERLVFLGEAFDES	not soluble
MGSDKIHHHHHHMNRLRTSFQQTTGQISGHGKRNVGVLKTAFAAVADEMASDQYGTGAIIEPFEQKFADVLGMDDAVFFPSGTMAQQVALRIWSDETDNRTVAYHPLCHLEIHEQDGLKELHPIETILVGAADRLMTLDEIKALPDIACLLLELPQREIGGVAPAFSELETISRYCRERGIRLHLDGARLFEMLPYYEKTAAEIAGLFDSIYISFYKGLGGIAGAILAGPAAFCQTARIWKRRYGGDLISLYPYIVSADYYYELRKDRMGQYYEQAKQLAEQFNALPGVHTTPEVPVSNMFHLHFDGQAADISPKLEQVQEETGLGFVGYLVDKDGYCSTEISVGDAYGELDQQTRDAGFARLRQAFS	not soluble
LYAHAVESLRHEITAVLLIAKPEDEVLLRLESPGGVVHGYGLAASQLRRLRERNIPLTVAVDKVAASGGYMMACVADKIVSAPFAVIGSVGVVAEVPNIHRLLKKHDIDVDVMTAGEFKRTVTFMGENTEKGKQKFRQELEETHQLFKQFVSENRPGLDIEKIATGEHWFGRQALALNLIDEISTSDD	not soluble
MGSDKIHHHHHHMDLASKYFNGVNWRYIDHSSGLEPMQSFAFDDTFCESVGKDISDNVVRTWIHQHTVILGIHDSRLPFLKDGIDYLTNEIGYNAIVRNSGGLGVVLDQGVLNISLMFKGQTETTIDEAFTVMYLLISKMFEDENVDIDTMEIEHSYCPGKFDLSIDGKKFAGISQRRVRGGIAVQIYLCVEGSGSERALMMQTFYEHALKGEVTKFKYPEIEPSCMASLETLLNKTITVQDVMFLLLYAIKDLGGVLNMTPITQEEWQRYDTYFDKMIERNKKMIDQMQ	not soluble
MAKTIAYDEEARRGLERGLNALADAVKVTLGPKGRNVVLEKKWGAPTITNDGVSIAKEIELEDPYEKIGAELVKEVAKKTDDVAGDGTTTATVLAQALVREGLRNVAAGANPLGLKRGIEKAVEKVTETLLKGAKEVETKEQIAATAAISAGDQSIGDLIAEAMDKVGNEGVITVEESNTFGLQLELTEGMRFDKGYISGYFVTDPERQEAVLEDPYILLVSSKVSTVKDLLPLLEKVIGAGKPLLIIAEDVEGEALSTLVVNKIRGTFKSVAVKAPGFGDRRKAMLQDMAILTGGQVISEEVGLTLENADLSLLGKARKVVVTKDETTIVEGAGDTDAIAGRVAQIRQEIENSDSDYDREKLQERLAKLAGGVAVIKAGAATEVELKERKHRIEDAVRNAKAAVEEGIVAGGGVTLLQAAPTLDELKLEGDEATGANIVKVALEAPLKQIAFNSGLEPGVVAEKVRNLPAGHGLNAQTGVYEDLLAAGVADPVKVTRSALQNAASIAGLFLTTEAVVADKPEKEKASVPGGGDMGGMDF	soluble
GMSKIFNEELAVIEAAAIAYLTAFNRADIPAVIATYTDDGVLMGPGRPAAVGKDELAEVYLSVFETVGFDMAYEIKEVVQTSADWAFVRSATEGTETNKATGVVTPAAYQELFLLRKSATGSWQTARYCTSKISP	soluble
MNRTAMRASQKDFENSMNQVKLLKKDPGNEVKLKLYALYKQATEGPCNMPKPGVFDLINKAKWDAWNALGSLPKEAARQNYVDLVSSLSPSLESSSQVEPGTD	soluble
MTSTSTPPGLARFNDLGEHAALAALHEACASTTWARRLIAARPYATADDLYTASDAAMAELTAADLAQAMAGHPPIGRPKPGDPTSAREQRGMAGASEELKADMLELNLAYQEKFGHVFLICATGRTGEQMRDAVRERIGNAPEREREIVRTELGKINRIRLARLVEEDAHALEHHHHHH	soluble
